Laboratory results taken from patent US20070031415A1 (published 2007).

T1: Rap1V12 (Rap1-activated mutant) (human, UniProt P62834 1-184, limits assumed)
T1 construct: also called active Rap1V12
T1 chain: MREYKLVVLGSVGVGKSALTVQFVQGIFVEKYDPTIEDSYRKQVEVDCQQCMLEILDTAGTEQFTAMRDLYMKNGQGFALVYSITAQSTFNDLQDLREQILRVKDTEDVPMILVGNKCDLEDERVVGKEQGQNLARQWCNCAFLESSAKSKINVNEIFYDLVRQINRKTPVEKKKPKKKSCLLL

T2: GTP-Rap1 (human, UniProt P62833 1-184 (bovine entry), limits assumed)
T2 sequence: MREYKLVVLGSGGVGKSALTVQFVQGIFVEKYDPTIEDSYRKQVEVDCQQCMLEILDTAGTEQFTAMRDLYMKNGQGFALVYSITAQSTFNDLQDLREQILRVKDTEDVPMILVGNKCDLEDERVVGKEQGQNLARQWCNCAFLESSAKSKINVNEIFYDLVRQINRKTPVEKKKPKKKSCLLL

B1: human p30 (RAPL), wild type (other)
chain: MTVDSSMSSGYCSLDEELEDCFFTAKTTFFRNAQSKHLSKNVCKPVEETQRPPTLQEIKQKIDSYNTREKNCLGMKLSEDGTYTGFIKVHLKLRRPVTVPAGIRPQSIYDAIKEVNLAATTDKRTSFYLPLDAIKQLHISSTTTVSEVIQGLLKKFMVVDNPQKFALFKRIHKDGQVLFQKLSIADRPLYLRLLAGPDTEVLSFVLKENETGEVEWDAFSIPELQNFLTILEKEEQDKIQQVQKKYDKFRQKLEEALRESQGKPG
notes: also called hp30; wild type p30

How the values were obtained:
[1] = target: T1, Rap1V12 (Rap1-activated mutant); assay: yeast two-hybrid screen, Rap1V12 as bait
Excerpt: To identify a molecule that associates with Rap1, the human leukocyte cDNA library was screened by a yeast two-hybrid method using a Rap1-activated mutant Rap1V12 as bait. As a result, a molecule that encodes a protein of a molecular weight of 30,000 having a Ras/Rap binding domain (RBD) was isolated and termed as p30 (FIG. 1). […] It was found from an analysis of the human genome database that p30 is an alternative splicing product of Norel. Mouse p30 cDNA was also isolated by a RT-PCR method.

[2] = target: Rap1 (of the BAF cells, in chemokine-stimulated migration); assay: cell-based or functional assay
GTP-Rap1 = target: T2, GTP-Rap1; assay: binding to GTP-Rap1, assay not detailed
[3] = target: B1; assay: association of Rap1V12 point mutants with p30, assay not detailed

| binding result [3] | Binder | also measured |
| --- | --- | --- |
| – | B1 | binding result [1]: binds; cell migration on ICAM-1 in the presence of SDF-1 (CXCL12) (20 nM) [2]: ~2 fold |
| – | p30RBDm (RBD-domain mutant of p30) (other) MTVDSSMSSGYCSLDEELEDCFFTAKTTFFRNAQSKHLSKNVCKPVEETQRPPTLQEIKQKIDSYNTREKNCLGMKLSEDGTYTGFIKVHLKLRRPVTVPAGIRPQSIYDAIKEVNLAATTDAATSFYLPLDAIAQLHISSTTTVSEVIQGLLAAFMVVAAPQKFALFKRIHKDGQVLFQKLSIADRPLYLRLLAGPDTEVLSFVLKENETGEVEWDAFSIPELQNFLTILEKEEQDKIQQVQKKYDKFRQKLEEALRESQGKPG | binding result (GTP-Rap1): no binding |
| binds | Rap1V12 E37G (enzyme, Point mutation in the effector region of the active Rap1V12) MREYKLVVLGSVGVGKSALTVQFVQGIFVEKYDPTIGDSYRKQVEVDCQQCMLEILDTAGTEQFTAMRDLYMKNGQGFALVYSITAQSTFNDLQDLREQILRVKDTEDVPMILVGNKCDLEDERVVGKEQGQNLARQWCNCAFLESSAKSKINVNEIFYDLVRQINRKTPVEKKKPKKKSCLLL | – |
| no binding | Rap1V12 D38E (enzyme, Point mutation in the effector region of the active Rap1V12) MREYKLVVLGSVGVGKSALTVQFVQGIFVEKYDPTIEESYRKQVEVDCQQCMLEILDTAGTEQFTAMRDLYMKNGQGFALVYSITAQSTFNDLQDLREQILRVKDTEDVPMILVGNKCDLEDERVVGKEQGQNLARQWCNCAFLESSAKSKINVNEIFYDLVRQINRKTPVEKKKPKKKSCLLL | – |
| no binding | Rap1V12 Y40C (enzyme, Point mutation in the effector region of the active Rap1V12) MREYKLVVLGSVGVGKSALTVQFVQGIFVEKYDPTIEDSCRKQVEVDCQQCMLEILDTAGTEQFTAMRDLYMKNGQGFALVYSITAQSTFNDLQDLREQILRVKDTEDVPMILVGNKCDLEDERVVGKEQGQNLARQWCNCAFLESSAKSKINVNEIFYDLVRQINRKTPVEKKKPKKKSCLLL | – |
| no binding | Rap1V12 T35E (enzyme, Point mutation in the effector region of the active Rap1V12) MREYKLVVLGSVGVGKSALTVQFVQGIFVEKYDPEIEDSYRKQVEVDCQQCMLEILDTAGTEQFTAMRDLYMKNGQGFALVYSITAQSTFNDLQDLREQILRVKDTEDVPMILVGNKCDLEDERVVGKEQGQNLARQWCNCAFLESSAKSKINVNEIFYDLVRQINRKTPVEKKKPKKKSCLLL | – |
